The text below walks through data of patent publication US20250019453A1 (SYNTHEKINE, published 2025).

In assay [1] the target is T1, hIL2Rb-his (human, UniProt P14784 27-240).
T1 sequence: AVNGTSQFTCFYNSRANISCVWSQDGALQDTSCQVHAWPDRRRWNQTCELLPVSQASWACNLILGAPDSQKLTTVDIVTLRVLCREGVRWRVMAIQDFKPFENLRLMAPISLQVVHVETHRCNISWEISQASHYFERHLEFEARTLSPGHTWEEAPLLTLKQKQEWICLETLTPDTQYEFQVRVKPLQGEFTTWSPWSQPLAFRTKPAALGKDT
Kind of assay: SPR Biacore T200; Mono-Fc VHH captured on Protein A chip, hIL2Rb-his analyte; 1:1 Langmuir fit. How it is done:
(§1) A representative example from each hIL2Rb VHH clonotype generated as descried above was selected for evaluation of binding via SPR as follows. Evaluation of binding affinity of the hIL2Rb binding molecules shown in Table 16 was conducted using surface plasmon resonance (SPR) in substantial accordance with the following procedure. All experiments were conducted in 10 mM Hepes, 150 mM NaCl, 0.05% (v/v) Polysorbate 20 (PS20) and 3 mM EDTA (HBS-EP+ buffer) on a Biacore T200 instrument equipped with a Protein A derivatized sensor chip (Cytiva). Mono-Fc VHH ligands were flowed at 5 μl/min for variable time ranging from 18 to 300 seconds, reaching the capture loads listed in the tables below. Following ligand capture, injections of a 2-fold dilution series of the extracellular domain of the IL2Rb-receptor modified to incorporate a C-terminal poly-His sequence, typically comprising at least five concentrations between 1 μM and 1 nM, were performed in either high performance or single cycle kinetics mode. Surface regeneration was achieved by flowing 10 mM glycine-HCl, pH 1.5 (60 seconds, […]). Buffer-subtracted sensograms were processed with Biacore T200 Evaluation Software and globally fit with a 1:1 Langmuir binding model (bulk shift set to zero) to extract kinetics and affinity constants (kₐ, kd, KD). RMAX<100 RU indicates surface density compatible with kinetics analysis. Calculated Rₘₐₓ values were generated using the equation: Rmax=Load (RU)×valency of ligand×(Molecular weight of analyte/Molecular weight of ligand). Surface activity was defined as the ratio of experimental/calculated Rmax.
(Surface plasmon resonance follows binding to a sensor surface in real time, without labels.)

Assay [2] has as its target T1, hIL2Rb-his. The assay is described as follows: SPR; ratio of experimental to calculated Rmax. The method, then: as §1
For assay [3], the target named is T2, hIL2Rg-his (Sino Biological, Catalog# 10555) (human, UniProt P31785 23-262).
T2 construct: Bought; also called extracellular domain of hIL2Rg
T2 sequence: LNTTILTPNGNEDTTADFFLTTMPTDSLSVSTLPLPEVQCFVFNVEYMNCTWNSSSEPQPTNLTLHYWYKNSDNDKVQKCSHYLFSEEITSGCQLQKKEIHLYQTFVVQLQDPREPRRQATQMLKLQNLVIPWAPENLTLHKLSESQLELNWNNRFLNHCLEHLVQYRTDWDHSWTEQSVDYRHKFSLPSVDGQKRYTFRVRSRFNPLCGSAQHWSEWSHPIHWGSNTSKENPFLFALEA
Kind of assay: SPR Biacore T200; Mono-Fc VHH captured on Protein A chip, hIL2Rg-his analyte; 1:1 Langmuir fit. The source says:
(§2) To confirm and evaluate binding affinities of the binding of the IL2Rg sdAbs, a representative example from each clonotype generated was selected for evaluation of binding via SPR. […] Buffer-subtracted sensograms were processed with Biacore T200 Evaluation Software and globally fit with a 1:1 Langmuir binding model (bulk shift set to zero) to extract kinetics and affinity constants (kₐ, kd, KD). RMAX<100 RU indicates surface density compatible with kinetics analysis. Calculated Rₘₐₓ values were generated using the equation: Rmax=Load (RU)×valency of ligand×(Molecular weight of analyte/Molecular weight of ligand). Surface activity was defined as the ratio of experimental/calculated Rmax.
All experiments were conducted in 10 mM Hepes, 150 mM NaCl, 0.05% (v/v) Polysorbate 20 (PS20) and 3 mM EDTA (HBS-EP+ buffer) on a Biacore T200 instrument equipped with a Protein A chip (Cytiva). Mono-Fc VHH ligands were flowed at 5 μl/min for variable time ranging from 18 to 300 seconds, reaching the capture loads listed in the tables below.
Following ligand capture, injections of a 2-fold dilution series of his-tagged cytokine receptors typically comprising at least five concentrations between 1 μM and 1 nM were performed in either high performance or single cycle kinetics mode. Surface regeneration was achieved by flowing 10 mM glycine-HCl, pH 1.5 (60 seconds, 50 μL/min). Buffer-subtracted sensograms were processed with Biacore T200 Evaluation Software and globally fit with a 1:1 Langmuir binding model (bulk shift set to zero) to extract kinetics and affinity constants (kₐ, kd, KD). RMAX<100 RU indicates surface density compatible with kinetics analysis.

The target of assay [4] is T2, hIL2Rg-his (Sino Biological, Catalog# …). Kind of assay: SPR; ratio of experimental to calculated Rmax.
Source text: as §2
Calculated Rmax were generated using the equation Rmax=Load (RU)×valency of ligand×(Molecular weight of analyte/Molecular weight of ligand. Surface activity was defined as the ratio experimental/calculated Rmax. See tables 16 and 17 below for sample information and experimental results.

Assay [5] addresses T3, hIL2Rb ECD antigen (human, UniProt P14784 27-240).
T3 construct: The immunogen was the ECD fused to human IgG1 hinge and Fc; also called ECD of IL2Rb (human); human IL-2Rβ
T3 sequence: T1 sequence
The assay is described as follows: PE-ELISA of phage clones.

B1: hIL2Rb_VHH5 Mono-Fc VHH (Fc fusion, not shown: a dimerising Fc or GST)
chain: QVQLQESGGGSVQVGGSLRLSCATSGDTKSIRCMGWFRQTPGKEREGIAAIDREGFATYADSVYDRFTIAQDNAQNTLYLEMNALKPEDTAMYYCAAQNMCRVVRGAMTGVDYWGKGTQVTVSS
The Kd is the concentration at which binding is half-saturated. A low value points to tighter binding. As a reminder, the koff is the first-order rate constant of dissociation. The low end stands for a long-lived complex, the high end for a short-lived complex. What is called kon is a measure of how fast the partners come together. A higher kon goes with faster complex formation. Take B1: in assay [1], binding was put at a Kd of 0.4 nM, the koff came to 0.00154 s⁻¹ and the kon amounted to 3.82e+06 M⁻¹ s⁻¹. In assay [2], the “Surface Activity” value was 42%.

B2: hIL-2Rg_VHH22 Mono-Fc VHH (Fc fusion, not shown: a dimerising Fc or GST)
chain: QVQLQESGGGLVQPGGSLRLSCTASGFSFSSYPMTWARQAPGKGLEWVSTIASDGGSTAYAASVEGRFTISRDNAKSTLYLQLNSLKTEDTAMYYCTKGYGDGTPAPGQGTQVTVSS
In assay [3], B2 displayed a Kd of 6.4 nM, a dissociation rate constant (koff) of 0.00354 s⁻¹ and a kon of 554000 M⁻¹ s⁻¹. Besides, the “Surface Activity” value in assay [4] is 108%.

B3: hIL2Rb_VHH7 Mono-Fc VHH (Fc fusion, not shown: a dimerising Fc or GST)
chain: QVQLQESGGGSVQAGGSLRLSCAASGYEYCRIHMTWYRQGPGKEREFVSSIGSDGRKTYANSVTGRFTISRDNANHTVYLQMNSLSPEDTAMYYCKTEYLYGLGCPDGSAYWGQGTQVTVSS
Regarding B3, in assay [1], binding was characterised by a dissociation constant (Kd) of 1.1 nM, the koff was determined as 0.00317 s⁻¹ and the kon turned out to be 2.86e+06 M⁻¹ s⁻¹. Moreover, the “Surface Activity” value in assay [2] is 43%.

B4: hIL2Rb_VHH4 Mono-Fc VHH (Fc fusion, not shown: a dimerising Fc or GST)
chain: QVQLQESGGGSVQTGGSLRLSCAVSGYTTYSFNYMGWFRQAPGKEREGVAVIYTGGGSTLYADSVKGRFTISQDNAKNTVYLQMNSLKPEDTAMYYCAADDQRFASPLYAYFGYWGQGTQVTVSS
Regarding B4, in assay [1], the Kd is 3.4 nM, the koff is 0.00205 s⁻¹ and the kon came to 600000 M⁻¹ s⁻¹. Moreover, the “Surface Activity” value in assay [2] was 96%.

B5: hIL-2Rg_VHH15 Mono-Fc VHH (Fc fusion, not shown: a dimerising Fc or GST)
chain: QVQLQESGGGLVQPGGSLRLSCAASGFTFSSAHMSWVRQAPGKGREWIASIYSGGGTFYADSVKGRFTISRDNAKNTLYLQLNSLKAEDTAMYYCATNRLHYYSDDDSLRGQGTQVTVSS
In assay [3], B5 displayed a Kd of 26 nM, a koff of 0.00251 s⁻¹ and a kon of 96800 M⁻¹ s⁻¹. For the same molecule, the “Surface Activity” value in assay [4] is 73%.

B6: hIL2Rb_VHH2 Mono-Fc VHH (Fc fusion, not shown: a dimerising Fc or GST)
chain: QVQLQESGGGLVQPGGSLRLSCVASGFTFSNYWIFWVRQAAGKGLEWLSTSNTGGDTTKYADSVKGRFTISRDSAKNTEYLQMNSLKPEDTAVYYCETGRCARSGGYQGTQVTVSS
Regarding B6, in assay [1], binding was characterised by a dissociation constant (Kd) of 16 nM, the koff is 0.00224 s⁻¹ and the kon was 139000 M⁻¹ s⁻¹. For the same molecule, the “Surface Activity” value in assay [2] was 26%.

B7: hIL-2Rg_VHH20 Mono-Fc VHH (Fc fusion, not shown: a dimerising Fc or GST)
chain: QVQLQESGGGSVQAGGSLRLSCTASGFTFDDSDMGWYRQAPGNECELVSTISSDGSTYYADSVKGRFTISQDNAKNTVYLQMNSLKPEDTAVYYCAAEPRGYYSNYGGRRECNYWGQGTQVTVSS
As for B7, in assay [3], the Kd amounted to 14.1 nM, the koff was found to be 0.0027 s⁻¹ and the kon turned out to be 192000 M⁻¹ s⁻¹. The “Surface Activity” value in assay [4] is 48%.

B8: hIL2Rb_VHH3 Mono-Fc VHH (Fc fusion, not shown: a dimerising Fc or GST)
chain: QVQLQESGGGLVQPGGSLKLSCAASGFRFSNYGMSWVRQAPGEGLEWVSYINGDGSRTHYADSVKGRFTISRDNAKNTLYLQLNSLKTEDTAMYYCEKGLSRDGWSLSAASRGQGTQVTVSS
Turning to B8, in assay [1], the affinity, expressed as Kd, was 47 nM; the koff was 0.00699 s⁻¹; the kon turned out to be 157000 M⁻¹ s⁻¹. Moreover, in assay [2], the “Surface Activity” value was 52%.

B9: hIL2Rb_VHH6 Mono-Fc VHH (Fc fusion, not shown: a dimerising Fc or GST)
chain: QVQLQESGGGSVQAGGSLRLSCAASEYTASRYCMAWFRQAPGKEREGVAAIHPGGGTTYYADSVKGRFSISQDSADNTLYLQMNSLKPEDTAMYYCAAGSLWVPFGDRCAANYWGQGTQVTVSS
In assay [1], B9 had a Kd of 1.2 nM, a koff of 0.0229 s⁻¹ and a kon of 1.9e+07 M⁻¹ s⁻¹. Also, in assay [2], the “Surface Activity” value is 53%.

B10: hIL-2Rg_VHH21 Mono-Fc VHH (Fc fusion, not shown: a dimerising Fc or GST)
chain: QVQLQESGGGSVQAGGSLRLSCVASGYTSCMGWFRQAPGKEREAVATIYTRGRSIYYADSVKGRFTISQDNAKNTLYLQMNSLKPEDIAMYSCAAGGYSWSAGCEFNYWGQGTQVTVSS
With B10, in assay [3], binding was put at a Kd of 17.2 nM, the koff worked out at 0.00113 s⁻¹ and the kon was determined as 65600 M⁻¹ s⁻¹. In addition, the “Surface Activity” value in assay [4] was 6%.

B11: hIL-2Rg_VHH19 Mono-Fc VHH (Fc fusion, not shown: a dimerising Fc or GST)
chain: QVQLQESGGGSVQAGGSLRLSCTASGFTFDDREMNWYRQAPGNECELVSTISSDGSTYYADSVKGRFTISQDNAKNTVYLQMDSVKPEDTAVYYCAADFMIAIQAPGAGCWGQGTQVTVSS
In assay [3], B11 displayed a Kd of 2.4 nM, a koff of 0.00693 s⁻¹ and a kon of 2.85e+06 M⁻¹ s⁻¹. Also, the “Surface Activity” value in assay [4] is 33%.

B12: hIL2Rb_VHH-8 (VHH)
VHH: QVQLQESGGGSVQVGGSLKLSCAASGYTYSSYYCMGWFRQAPGKEREGVAAIDSDGSTSYADSVKGRFTISQDDAKNTLYLQMNSLKPEDTAMYYCAASYEVVDCYPSGYGQDYWGKGTQVTVSS
notes: As a his-tagged phage clone periplasmic extract
As to B12, the binding result in assay [5] was “binds”.

B13: hIL-2Rg_VHH8 Mono-Fc VHH (Fc fusion, not shown: a dimerising Fc or GST)
chain: QVQLQESGGGSVQAGGSLRLSCVASGYTFSSYCMGWFRQAPGKEREGVAALGGGSTYYADSVKGRFTISQDNAKNTLYLQMNSLKPEDTAMYYCAAAWVACLEFGGSWYDLARYKHWGQGTQVTVSS
In assay [3], B13 yielded a Kd of 2.2 nM, a koff of 0.000812 s⁻¹ and a kon of 366000 M⁻¹ s⁻¹. Besides, the “Surface Activity” value in assay [4] was 110%.
